{
  "source": "patent US6399570B1",
  "about": "“Antimicrobial/endotoxin neutralizing polypeptide” (priority 1999, dated 2002)",
  "molecules": {"B1": {"name": "LF: 80 kDa iron-binding glycoprotein, purified from human colostrum (protein, UniProt P02788 20-710, looked up)", "Lactotransferrin": "GRRRSVQWCAVSQPEATKCFQWQRNMRKVRGPPVSCIKRDSPIQCIQAIAENRADAVTLDGGFIYEAGLAPYKLRPVAAEVYGTERQPRTHYYAVAVVKKGGSFQLNELQGLKSCHTGLRRTAGWNVPIGTLRPFLNWTGPPEPIEAAVARFFSASCVPGADKGQFPNLCRLCAGTGENKCAFSSQEPYFSYSGAFKCLRDGAGDVAFIRESTVFEDLSDEAERDEYELLCPDNTRKPVDKFKDCHLARVPSHAVVARSVNGKEDAIWNLLRQAQEKFGKDKSPKFQLFGSPSGQKDLLFKDSAIGFSRVPPRIDSGLYLGSGYFTAIQNLRKSEEEVAARRARVVWCAVGEQELRKCNQWSGLSEGSVTCSSASTTEDCIALVLKGEADAMSLDGGYVYTAGKCGLVPVLAENYKSQQSSDPDPNCVDRPVEGYLAVAVVRRSDTSLTWNSVKGKKSCHTAVDRTAGWNIPMGLLFNQTGSCKFDEYFSQSCAPGSDPRSNLCALCIGDEQGENKCVPNSNERYYGYTGAFRCLAENAGDVAFVKDVTVLQNTDGNNNEAWAKDLKLADFALLCLDGKRKPVTEARSCHLAMAPNHAVVSRMDKVERLKQVLLHQQAKFGRNGSDCPDKFCLFQSETKNLLFNDNTECLARLHGKTTYEKYLGPQYVAGITNLKKCSTSPLLEACEFLRK"}},
  "key": {"[1]": {"system": "lipid A from E. coli 0113", "assay": "LAL assay, neutralization of lipid A endotoxin activity (FIG. 6)", "format": "biochemical", "settings": "lipid A 30 ng/ml", "method": "The lipid A region of the LPS molecule is primarily responsible for the inflammatory and toxic effects of LPS. When LPS is released from the microbe, the lipid A portion may become more accessible. The following assays were performed to determine the potential of various amino-terminal LF polypeptides to neutralize the endotoxic activity of the lipid A portion of LPS. LF, the 6 kDa fragment of LF, LF-33, LF-27, and polymyxin B were each tested for the ability to neutralize the endotoxin activity of lipid A from E. coli 0113 (30 ng/ml), using a LAL assay. […] The endotoxin activity of the smaller fragments of LF indicate that endotoxin-neutralizing activity of these small polypeptides is masked when in the context of the intact LF molecule."}, "E. coli 0111": {"system": "E. coli 0111", "assay": "Time course of E. coli growth in the presence of LF polypeptides", "format": "cell-based", "settings": "50 μM, seven hour time course, OD 600 nm", "method": "To investigate whether regions of the molecule involved in GAG binding activity of the 6 kDa LF polypeptide (generated from pepsin digestion) are also involved in the antimicrobial activity of the 6 kDa polypeptide of the present invention, polypeptides of various lengths corresponding to the N-terminal amino acid sequence of LF were tested for the ability to inhibit the growth of E. coli 0111. Overnight cultures were grown over a seven hour time course in the presence of 50 μM of either LF, a 33-mer corresponding to amino acids 1-33 of LF, a 26-mer corresponding to […] of LF, a 27-mer corresponding to amino acids 1-27 of LF. […] This is consistent with LF and the 33-mer inhibiting bacterial growth via different mechanisms. […] The failure of the 26-mer and the 27-mer to inhibit culture growth emphasizes the importance of retaining both clusters of basic residues, at the termini of the 33-mer, for the antimicrobial functionality of polypeptides derived from the N-terminal LF sequence.\nTime course of E. coli growth in the presence of LF polypeptides. E. coli cells, clinical isolate strain 0111, were obtained from ATCC. […] Culture growth was monitored spectrophotometrically by measuring optical density at 600 nm at each indicated time point."}},
  "data": [
    {"molecule": "B1", "values": [
      {"measurement": "lipid A neutralizing activity", "setting": "[1]", "result": "no appreciable lipid A neutralizing activity"},
      {"measurement": "growth of E. coli 0111 cultures", "setting": "E. coli 0111", "result": "transient growth suppressing effect"}
    ]}
  ]
}
